# From publication PMC10801496, “A Novel Anti-CD47 Nanobody Tetramer for Cancer Therapy” (Antibodies, 2024)
# Biological target: T1, human CD47 with His tag (Homo sapiens, UniProt Q08722)
# T1 construct: CD47, human; The alpaca was immunised with an extracellular fragment of CD47; also called recombinant CD47; source: gift from P.M. Chumakov
# Test: SPR; recombinant CD47 anchored to a CM5 chip, nanobodies as analyte, Biacore T200
# Conditions: both partners purified
# T1 sequence (Q08722 19-323): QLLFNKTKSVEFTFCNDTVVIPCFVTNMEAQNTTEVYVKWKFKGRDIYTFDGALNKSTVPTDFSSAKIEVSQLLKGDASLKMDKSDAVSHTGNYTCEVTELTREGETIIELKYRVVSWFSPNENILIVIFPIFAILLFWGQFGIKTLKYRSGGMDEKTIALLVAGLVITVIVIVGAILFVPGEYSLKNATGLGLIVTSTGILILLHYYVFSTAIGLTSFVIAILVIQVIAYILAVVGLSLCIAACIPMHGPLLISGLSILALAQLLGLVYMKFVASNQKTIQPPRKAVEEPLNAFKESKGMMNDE
row,Binder,Kd [nM]
1,"47VHH1H4 (VHH, alpaca VHH; Cloned into pET32b+; about 17 kDa on SDS-PAGE; also called native 47VHH1H4; source: E. coli BL21DE3, purified (Ni-NTA, gel-filtration)) VHH: QVQLVESGGGLVQAGGSLRLSCKVSGNNFRRVNMGWYRQAPGKQRDLVAWISNDGGTYYDRSLKGRFTISRDNTKNTMFLQMDSLKPEDTAVYYCNSRPSSIFGSWGQGTQVTVSS",30
2,"47VHH1D9 (VHH, alpaca VHH; Cloned into pET32b+; about 17 kDa on SDS-PAGE; source: E. coli BL21DE3, purified (Ni-NTA, gel-filtration)) VHH: RVQAGGSLRLSCKVSGNNFRRVNMGWYRQAPGKQRDLVAWISNDGGTYYDRSLKGRFTISRDNTKNTMFLQMDSLKPEDTAVYYCNSRPSSIFGSWGQGTQVTVSS",400
3,"47VHH1C17 (VHH, alpaca VHH; Cloned into pET32b+; about 17 kDa on SDS-PAGE; source: E. coli BL21DE3, purified (Ni-NTA, gel-filtration)) VHH: QVQLVESGGGLVQAGGSLRLSCAASGHTFSSYDMGWFRQAPGKEREFVAHINWSGSTYYADSVKGRFTISGGNAKNAVYLQMNSLKPEDTAVYYCGAKYAISRTWDYWGQGTQVTVSS",2000
4,"47VHH1A12 (VHH, alpaca VHH; Cloned into pET32b+; about 17 kDa on SDS-PAGE; source: E. coli BL21DE3, purified (Ni-NTA, gel-filtration)) VHH: QLQLVESGGGLVQAGGSLRLSCVVSGGTFSALTMGWFRDVPGKEREFVSAISFDTRTTYYSDSVKGRFAISRDNGLNTVYLDMNSLRPEDTAVYVCAADAQIGWVNRRAYDYDYWGQGTQVTVSS",~30000
5,"47VHH2B10 (VHH, alpaca VHH; Cloned into pET32b+; about 17 kDa on SDS-PAGE; source: E. coli BL21DE3, purified (Ni-NTA, gel-filtration)) VHH: QVQLVESGGGLVQPGGSLRLSCEASGFNLGYYGICWFRRAAGKEREGVACSATPDDSTYYADSVKGRFTISKDKAKNMIFLQMNDLKPEDTAVYYCVTDRKPKYGKQWLEFSEYDYWGQGTQVIVSS",~30000
6,"47VHH1H4B (VHH, as the VHH of m3 (47VHH1H4); IgA hinge linker; biotin acceptor domain BAD; About 25 kDa on SDS-PAGE; also called biotinylated 47VHH1H4; biotinylated 47VHH1H4 fragment; source: E. coli BL21DE3 carrying BirA, 0.3 mM biotin, purified (Ni-NTA, UNO S1 cation exchange)) VHH: QVQLVESGGGLVQAGGSLRLSCKVSGNNFRRVNMGWYRQAPGKQRDLVAWISNDGGTYYDRSLKGRFTISRDNTKNTMFLQMDSLKPEDTAVYYCNSRPSSIFGSWGQGTQVTVSS",3
